Data reported in patent publication JP2002536968A (dated 2002).

How the values were obtained:
HUVEC上の細胞表面発現KDR (human) = HUVEC上の細胞表面発現KDR (human) (UniProt P35968); assay: cell-based or functional assay
可溶性融合タンパク質 KDR-AP [1] = molecular target: T1, 可溶性融合タンパク質 KDR-AP (human, UniProt P35968 20-764); assay: BIAcore, KDR-AP immobilised (refers to Table 2)
T1 construct: extracellular domain; Made in NIH3T3 cells; also called KDR-アルカリ性ホスファターゼ融合タンパク質; 固定化KDR; not shown: human placental alkaline phosphatase (AP), from vector AP-tag
T1 sequence (P35968 20-764): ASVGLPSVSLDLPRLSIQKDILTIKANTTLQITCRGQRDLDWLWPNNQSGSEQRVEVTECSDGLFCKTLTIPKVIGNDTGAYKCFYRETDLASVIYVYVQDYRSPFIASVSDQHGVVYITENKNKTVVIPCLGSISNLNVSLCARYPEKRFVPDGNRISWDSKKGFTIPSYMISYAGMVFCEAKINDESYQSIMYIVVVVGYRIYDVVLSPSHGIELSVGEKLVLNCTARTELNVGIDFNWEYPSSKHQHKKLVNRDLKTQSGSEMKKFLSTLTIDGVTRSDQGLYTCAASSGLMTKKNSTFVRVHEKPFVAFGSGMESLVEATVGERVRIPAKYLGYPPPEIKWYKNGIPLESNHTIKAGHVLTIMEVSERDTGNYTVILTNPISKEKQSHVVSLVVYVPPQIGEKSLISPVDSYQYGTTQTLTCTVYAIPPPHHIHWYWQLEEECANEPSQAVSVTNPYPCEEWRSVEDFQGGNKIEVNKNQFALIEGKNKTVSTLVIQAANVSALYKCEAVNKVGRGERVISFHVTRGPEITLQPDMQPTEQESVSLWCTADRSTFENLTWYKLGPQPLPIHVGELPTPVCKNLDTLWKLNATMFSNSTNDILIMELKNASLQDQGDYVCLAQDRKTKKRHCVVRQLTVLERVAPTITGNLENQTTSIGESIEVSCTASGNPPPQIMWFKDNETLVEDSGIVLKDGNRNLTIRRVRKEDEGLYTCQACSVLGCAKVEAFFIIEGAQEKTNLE

可溶性融合タンパク質 KDR-AP [2] = molecular target: T1, 可溶性融合タンパク質 KDR-AP; assay: BIAcore, KDR-AP immobilised, antibody injected at 25-200 nM
可溶性融合タンパク質 KDR-AP [3] = molecular target: T1, 可溶性融合タンパク質 KDR-AP; assay: competitive VEGF binding ELISA: antibody mixed with KDR-AP, then on VEGF165-coated plate
可溶性融合タンパク質 KDR-AP [4] = molecular target: T1, 可溶性融合タンパク質 KDR-AP; assay: BIAcore, KDR-AP immobilised, soluble scFv injected
可溶性融合タンパク質 KDR-AP [5] = molecular target: T1, 可溶性融合タンパク質 KDR-AP; assay: competitive VEGF blocking ELISA: scFv mixed with KDR-AP, then on VEGF165-coated plate
可溶性融合タンパク質 KDR-AP [6] = molecular target: T1, 可溶性融合タンパク質 KDR-AP; assay: direct binding ELISA, soluble scFv on KDR-coated plate; concentration for 50% of maximal binding

HUVECのVEGF誘導性有糸分裂誘発の50%を抑制するのに必要な抗体濃度 ([3H]-TdR) (HUVEC上の細胞表面発現KDR (human)) [nM] | fold higher affinity than parent scFv p1C11 (可溶性融合タンパク質 KDR-AP [1]) [fold] | Kd (可溶性融合タンパク質 KDR-AP [2]) [nM] | IC50 (可溶性融合タンパク質 KDR-AP [3]) [nM] | Kd (可溶性融合タンパク質 KDR-AP [4]) [nM] | IC50 (可溶性融合タンパク質 KDR-AP [5]) [nM] | EC50 (可溶性融合タンパク質 KDR-AP [6]) [nM] | Binder
0.8 | 2.5 | 0.82 | 0.8 |  |  |  | キメラ抗KDR抗体 c-p1C11 (antibody, from another filing) scFv: QVKLQQSGAELVGSGASVKLSCTTSGFNIKDFYMHWVKQRPEQGLEWIGWIDPENGDSDYAPKFQGKATMTADSSSNTAYLQLSSLTSEDTAVYYCNAYYGDYEGYWGQGTTVTVSSGGGGSGGGGSGGGGSDIELTQSPAIMSASPGEKVTITCSASSSVSYMHWFQQKPGTSPKLWIYSTSNLASGVPARFSGSGSGTSYSLTISRMEAEDAATYYCQQRSSYPFTFGSGTKLEIK
 |  |  | 2 | 2.1 | 3 | 0.3 | scFv p1C11 (scFv) QVKLQQSGAELVGSGASVKLSCTTSGFNIKDFYMHWVKQRPEQGLEWIGWIDPENGDSDYAPKFQGKATMTADSSSNTAYLQLSSLTSEDTAVYYCNAYYGDYEGYWGQGTTVTVSSGGGGSGGGGSGGGGSDIELTQSPAIMSASPGEKVTITCSASSSVSYMHWFQQKPGTSPKLWIYSTSNLASGVPARFSGSGSGTSYSLTISRMEAEDAATYYCQQRSSYPFTFGSGTKLEIK
